# Source: patent publication US20210070885A1 (JIANGSU ALPHAMAB BIOPHARMACEUTICALS, published 2021)
# Molecular target: T1, HER2m1-Fc (human, UniProt P04626 23-652)
# T1 construct: also called HERm1; Her2 ml
# Experiment: indirect ELISA as in Example 2-6, EC50 compared
row,fold reduction of affinity against the original Trastuzumab,Binder
1,~1 fold,"Tmab-CLC5 (antibody, human IgG1, kappa, V domains shown) VH: not shown VL: DIQMTQSPSSLSASVGDRVTITCKASQDVSIGVAWYQQKPGKAPKLLIYSASYRYTGVPSRFSGSGSGTDFTLTISSLQPEDFATYYCQQYYIYPYTFGQGTKVEIKR"
2,~1 fold,"Tmab-CLC6 (antibody, human IgG1, kappa, V domains shown) VH: not shown VL: DIQMTQSPSSLSASVGDRVTITCKASQDVSIGVAWYQQKPGKAPKLLIYSASYRYTGVPSRFSGSGSGTDFTLTISSLQPEDFATYYCQQYYITPYTFGQGTKVEIKR"

# Molecular target: T2, HER2m2-Fc (human, UniProt P04626 23-652)
# T2 construct: also called HERm2; Herm2
# Experiment: indirect ELISA as in Example 2-6, EC50 compared
row,Binder,binding result
1,"Pmab-CLC2 (antibody, human IgG1, kappa, V domains shown, Pertuzumab heavy chain with common light chain CLC2) VH: EVQLVESGGGLVQPGGSLRLSCAASGFTFTDYTMDWVRQAPGKGLEWVADVNPNSGGSIYNQRFKGRFTLSVDRSKNTLYLQMNSLRAEDTAVYYCARNLGPSFYFDYWGQGTLVTVSS VL: not shown",binds
2,"Pmab-CLC3 (antibody, human IgG1, kappa, V domains shown, Pertuzumab heavy chain with common light chain CLC3) VH: EVQLVESGGGLVQPGGSLRLSCAASGFTFTDYTMDWVRQAPGKGLEWVADVNPNSGGSIYNQRFKGRFTLSVDRSKNTLYLQMNSLRAEDTAVYYCARNLGPSFYFDYWGQGTLVTVSS VL: not shown",binds

# The remaining lines, values ahead:
row,binding result,Binder
1,binds,"Pmab-CLC6 (antibody, human IgG1, kappa, V domains shown, Pertuzumab heavy chain with common light chain CLC6 (Y94T)) VH: EVQLVESGGGLVQPGGSLRLSCAASGFTFTDYTMDWVRQAPGKGLEWVADVNPNSGGSIYNQRFKGRFTLSVDRSKNTLYLQMNSLRAEDTAVYYCARNLGPSFYFDYWGQGTLVTVSS VL: DIQMTQSPSSLSASVGDRVTITCKASQDVSIGVAWYQQKPGKAPKLLIYSASYRYTGVPSRFSGSGSGTDFTLTISSLQPEDFATYYCQQYYITPYTFGQGTKVEIKR"
2,binds,"Pmab-CLC4 (antibody, human IgG1, kappa, V domains shown, Pertuzumab heavy chain with common light chain CLC4) VH: EVQLVESGGGLVQPGGSLRLSCAASGFTFTDYTMDWVRQAPGKGLEWVADVNPNSGGSIYNQRFKGRFTLSVDRSKNTLYLQMNSLRAEDTAVYYCARNLGPSFYFDYWGQGTLVTVSS VL: not shown"
